Results on one molecule are retold here after patent US20030186329A1, “Use of substrate subtraction libraries to distinguish enzyme specificities” (The Scripps Research Institute, priority 1998, published 2003).

Assay [1] has as its target t-PA (Homo sapiens, UniProt P00750). Description: Cleavage of maltose binding protein-QRGRSA-HY4 fusion protein by t-PA (SDS-PAGE). The class given is biochemical. To be noted: 150 nM enzyme, 16 hours at 25 C. As to the method:
(§1) The fusion consists of maltose binding protein fused to the amino terminus of the HY4 gene product of Arabidopsis thaliana with a linking region in between coding for the amino acid sequence QRGRSA, which is cleaved by t-PA between R and S. The concentration of fusion protein in each lane is […] and the concentration of u-PA or […] is 150 nM. The reaction buffer contains 50 mM Tris pH 7.5, 0.1 M NaCl, 1 mM EDTA, and 0.01% Tween 20. Reactions were set up in a total volume of […] and allowed to incubate 16 hours at 25 C. and then stopped by the addition of […] of 5× loading buffer and separated by electrophoresis on 12% polyacrylamide. The gel was stained with Coomassie Brilliant Blue 30 minutes and de-stained overnight.

The target of assay [2] is T1, u-PA (Homo sapiens, UniProt P00749).
T1 construct: purchased Jack Henkin (Abbott Laboratories)
Description: Cleavage of maltose binding protein-QRGRSA-HY4 fusion protein by u-PA (SDS-PAGE). The class given is biochemical. To be noted: 150 nM enzyme, 16 hours at 25 C. On the procedure: as §1

Sequence of t-PA (P00750 36-562): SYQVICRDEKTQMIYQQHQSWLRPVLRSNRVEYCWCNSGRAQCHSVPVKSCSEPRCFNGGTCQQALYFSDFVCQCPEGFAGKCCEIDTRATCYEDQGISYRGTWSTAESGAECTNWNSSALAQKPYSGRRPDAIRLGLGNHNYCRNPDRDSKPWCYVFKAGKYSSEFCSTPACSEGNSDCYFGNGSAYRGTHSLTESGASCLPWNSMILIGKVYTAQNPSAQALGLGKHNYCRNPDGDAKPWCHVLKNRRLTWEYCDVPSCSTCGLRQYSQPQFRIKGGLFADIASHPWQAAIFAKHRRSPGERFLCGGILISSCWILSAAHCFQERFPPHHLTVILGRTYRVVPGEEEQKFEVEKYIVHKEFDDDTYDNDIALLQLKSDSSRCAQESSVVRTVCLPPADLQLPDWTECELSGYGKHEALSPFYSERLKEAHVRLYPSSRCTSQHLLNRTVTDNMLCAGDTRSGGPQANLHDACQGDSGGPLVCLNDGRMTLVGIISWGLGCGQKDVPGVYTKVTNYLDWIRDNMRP

B1: fusion protein: maltose binding protein fused to HY4 gene product of Arabidopsis thaliana with linking region QRGRSA (protein)
chain: QRGRSAMSGSVSGCGSGGCSIVWFRRDLRVEDNPALAAAVRAGPVIALFVWAPEEEGHYHPGRVSRWWLKNSLAQLDSSLRSLGTCLITKRSTDSVASLLDVVKSTGASQIFFNHLYDPLSLVRDHRAKDVLTAQGIAVRSFNADLLYEPWEVTDELGRPFSMFAAFWERCLSMPYDPESPLLPPKKIISGDVSKCVADPLVFEDDSEKGSNALLARAWSPGWSNGDKALTTFINGPLLEYSKNRRKADSATTSFLSPHLHFGEVSVRKVFHLVRIKQVAWANEGNEAGEESVNLFLKSIGLREYSRYISFNHPYSHERPLLGHLKFFPWAVDENYFKAWRQGRTGYPLVDAGMRELWATGWLHDRIRVVVSSFFVKVLQLPWRWGMKYFWDTLLDADLESDALGWQYITGTLPDSREFDRIDNPQFEGYKFDPNGEYVRRWLPELSRLPTDWIHHPWNAPESVLQAAGIELGSNYPLPIVGLDEAKARLHEALSQMWQLEAASRAAIENGSEEGLGDSAEVEEAPIEFPRDITMEETEPTRLNPNRRYEDQMVPSITSSLIRPEEDEESSLNLRNSVGDSRAEVPRNMVNTNQAQQRRAEPASNQVTAMIPEFNIRIVAESTEDSTAESSSSGRRERSGGIVPEWSPGYSEQFPSEENGIGGGSTTSSYLQNHHEILNWRRLSQTG
modifications: left off: large carriers
As for B1, the “cleavage of fusion protein by t-PA” value in assay [1] is listed as “readily cleaved”. Further, the “cleavage of fusion protein by u-PA” value in assay [2] was “did not”.
